Patent publication US10428308B2, “Mesoderm and definitive endoderm cell populations” (Icahn School of Medicine at Mount Sinai, priority 2005, dated 2019)

How the values were obtained:
CD4-HNF/GFP-T ES cells = experiment: Activin A / Wnt3a induction of ES derived primitive streak like cells in serum free culture, with pathway inhibitors; type: cell-based, mouse; details: for development of GFP^+ CD4^+ cells with either inducer (activin or Wnt): DKK1 100 ng/ml or SB-431542 6 uM
Description: FIGS. 34A, 34B and 34C depict ES cells differentiated in serum free conditions with Activin A Wnt3a and/or inhibitors of these pathways. ES cells were cultured in serum free media for two days then trypsinized to obtain a single cell population. These cells were then reaggregated with the indicated conditions. At day six, the EBs were plated on matrigel coated dishes in serum free media.
Liu et. al. (1999) Nat. Genet. 22: 361-4. […] Activin stimulation leads to high levels of CD4 expression that persist after loss of GFP-Bry expression at day 6. […] Wnt does however stimulate expression of the posterior primitive streak markers HoxBI and Tbx6, while activin only induces Tbx6. […] At day 6, EBs that were stimulated with either activin or Wnt3a were plated on matrigel in serum free media to allow further development.
Considering that Wnt stimulation induces nodal and activin treatment induces Wnt3 (FIG. 34B), it is unknown whether activin/nodal signaling or Wnt Signaling alone can induce primitive streak formation or whether both factors are required together. CD4-HNF/GFP-T ES cells were induced with either activin or Wnt in conjunction with specific inhibitors of these pathways. DKK1 was used to inhibit Wnt signaling while the small molecule inhibitor SB-431542 (SB) was used to block Nodal/TGFβ signaling. DKK1 functions by binding the Wnt co-receptors, LRP5 and LRP6, which are essential for activation of the βcatenin signaling pathway. […] Inman et. al. (2002) MoI. Pharmacol. 62: 65-74. […] Therefore, to induce mesoderm and endoderm germ layers and their derivative tissues, both activin/Nodal and Wnt signals are required initially.

ALK4, 5, and 7 = details: Inman et al. (2002); cited from earlier work
[1] = test system: GFP^+ hCD4^med cells from CD4-HNF/GFP-T ES cells; experiment: Reaggregation of sorted GFP^+ hCD4^med cells in serum free media with DKK1 and/or activin; type: cell-based, mouse
Description: FIGS. 35A and 35B depict, the effects of DKK1 and activin on EB differentiation. EBs differentiated and sorted as in FIG. 32 for GFP^+ hCD4^med were allowed to reaggregate in serum replacement containing media alone or with the addition of human DKK1 100 ng/ml, activin 100 ng/ml, or both factors together. […] FIG. 35B depicts endodermal gene expression by RT PCR. The sorted populations were treated as indicated above for 2 days, then plated on matrigel in serum free media without factors added. Gene expression was analyzed an additional 5 days after plating.
Nodal, a key molecule involved in mesoderm/endoderm induction in vivo, signals through the same receptors as activin. It is also known that Nodal as well as inhibitors for Wnt signaling are expressed preferentially in or around the anterior primitive streak. Considering that the endoderm forms from the anterior primitive streak, it is possible that nodal/activin signaling in combination with inhibition of Wnt signals induces endoderm formation. To test this hypothesis, CD4-HNF/GFP-T ES cells were differentiated for 3.25 days in serum and GFP^+ hCD4^med cells were sorted and reaggregated in serum free media with no factor, DKK1 (Wnt inhibitor), activin, or activin and DKK1. The effect of these culture conditions on hCD4-HNF3β and GFP-Bry levels were analyzed by flow cytometry (FIG. 35A). With serum free media alone, hCD4 expression was lost after 1 day reaggregation. […] To further test this idea, sorted cells reaggregated for two days in the culture conditions above were washed with serum free media without factors and plated onto martrigel in serum free media. After 5 days, the cultures were harvested and gene expression determined by RT PCR. […] These culture conditions have the potential to allow the large scale production of endodermal derived tissues such as the pancreas and liver.

EBs (brachyury^+ cells) = experiment: BMP4 added to developing EBs in serum free cultures, GFP/Flk-1 expression; type: cell-based, mouse; details: BMP4 20 ng/ml
Description: FIG. 8B depicts expression of brachyury and Flk-1 on cell populations generated from GFP+/Flk-1^− cells cultured for 20 hours under the indicated conditions.
To assess the role of serum in the development of brachyury^+ cells, EBs were differentiated the absence of serum. EBs did develop under these conditions, although they were somewhat smaller than those found in normal conditions. […] Significant numbers of GFP^+/Flk-1^− and GFP^+/Flk-1^+ cells did develop when serum was added to the cultures. […] As a first step in identifying factors that might play a role in this process, BMP4 (20 ng/ml) was added to the developing EBs in the serum free cultures. […] To determine if BMP4 could induce GFP^+/Flk-1^+ from GFP^+/Flk-1^− cells that were induced in the presence of serum, GFP^+/Flk-1^− cells were isolated from EBs differentiated for three days in the presence of serum. These cells were reaggregated in medium alone, in medium with serum or in medium with BMP4. […] As expected, the same population generated a large GFP^+/Flk-1^+ population when serum was added to the cultures. Consistent with the findings in the primary differentiation cultures, BMP4 was unable to induce the development of significant numbers of GFP^+/Flk-1^+ cells from the cultured GFP^+/Flk-1^− cells.

In the case of `NC(=O)c1ccc(-c2nc(-c3ccc4c(c3)OCO4)c(-c3ccccn3)[nH]2)cc1` [SB-431542], the “development of GFP^+ CD4^+ cells with either inducer (activin or Wnt)” value (CD4-HNF/GFP-T ES cells) is listed as “completely blocked”, the “effect on BMP signaling” value (ALK4, 5, and 7) is listed as “does not, however, block BMP signaling” and the receptor specificity (ALK4, 5, and 7) is listed as “specific inhibitor of the receptors ALK4, 5, and 7”.

B1: DKK1: Wnt signaling inhibitor binding the Wnt co-receptors LRP5 and LRP6 (protein, UniProt O94907 32-266, looked up)
Dickkopf-related protein 1: TLNSVLNSNAIKNLPPPLGGAAGHPGSAVSAAPGILYPGGNKYQTIDNYQPYPCAEDEECGTDEYCASPTRGGDAGVQICLACRKRRKRCMRHAMCCPGNYCKNGICVSSDQNHFRGEIEETITESFGNDHSTLDGYSRRTTLSSKMYHTKGQEGSVCLRSSDCASGLCCARHFWSKICKPVLKEGQVCTKHRRKGSHGLEIFQRCYCGEGLSCRIQKDHHQASNSSRLHTCQRH
For B1, the “endoderm gene expression by RT PCR (pancreas, liver, intestine genes)” value ([1]; 2 days treatment, then 5 days on matrigel without factors) was “None of these genes were detected”, the “hCD4 (HNF3β) level by flow cytometry” value ([1]; after 1 day reaggregation, DKK1 100 ng/ml, activin 100 ng/ml) was “allowed some cells to retain low levels of hCD4” and the “development of GFP^+ CD4^+ cells with either inducer (activin or Wnt)” value (CD4-HNF/GFP-T ES cells) was “completely blocked”.

B2: Wnt3a: recombinant Wnt3a (protein, UniProt P56704 19-352, looked up)
Protein Wnt-3a: SYPIWWSLAVGPQYSSLGSQPILCASIPGLVPKQLRFCRNYVEIMPSVAEGIKIGIQECQHQFRGRRWNCTTVHDSLAIFGPVLDKATRESAFVHAIASAGVAFAVTRSCAEGTAAICGCSSRHQGSPGKGWKWGGCSEDIEFGGMVSREFADARENRPDARSAMNRHNNEAGRQAIASHMHLKCKCHGLSGSCEVKTCWWSQPDFRAIGDFLKDKYDSASEMVVEKHRESRGWVETLRPRYTYFKVPTERDLVYYEASPNFCEPNPETGSFGTRDRTCNVSSHGIDGCDLLCCGRGHNARAERRREKCRCVFHWCCYVSCQECTRVYDVHTCK
For B2, the “endodermal gene expression (Alb, Aat, HNF4, Pdxl) by RT-PCR” value (CD4-HNF/GFP-T ES cells; day 6 EBs plated on matrigel a further 6 days, serum free) was “did not express any of these markers” and the “induction of GFP^+ CD4^+ cells” value (CD4-HNF/GFP-T ES cells; serum free, Activin A 25 ng/ml or Wnt3a 100 ng/ml) was “initially induce GFP^+ CD4^+ cells”.

B3: BMP4: growth factor purchased from R&D systems (protein, UniProt P12644 293-408, looked up)
Bone morphogenetic protein 4: SPKHHSQRARKKNKNCRRHSLYVDFSDVGWNDWIVAPPGYQAFYCHGDCPFPLADHLNSTNHAIVQTLVNSVNSSIPKACCVPTELSAISMLYLDEYDKVVLKNYQEMVVEGCGCR
For B3, the “development of GFP^+/Flk-1^+ population” value (EBs (brachyury^+ cells); serum free primary differentiation cultures) was “did not support the development of the GFP^+/Flk-1^+ population” and the “induction of brachyury^+ cells” value (EBs (brachyury^+ cells); serum free, within 3 days of differentiation) was “induce a significant population of brachyury^+ cells”.
